Test results reported in the NTF2 design screens of Basanta et al. (2020).

Test: protease stability score; higher = more stable; yeast display proteolysis, trypsin and chymotrypsin;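 note: log10 excess protease needed over predicted unfolded state with 0 meaning unfolded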

Question: For “DDDAARQFEEVMKAVEHGDPHQVEELVDPNATFNVGDKRWHGMRENMQEHISRFQSINMTVEIKRVEDTNGRAKFEASVTRNDNGKPDTFTVEIVVRVHNGEIKEVQLNNTK”, which protease stability score is on record?
Answer: 0.158

Question: Which protease stability score does the source give for “DDDADRRARKLDQARKEGDPDKMRKNMDPNVRMQIGDQEWSGRETIANKLATDLKRMDIEITIKRYTWHNGTADIDADETFNVDGRPNSDKVRMEVHFHNGRVEHQILRVPEEFKHRLHK” here?
Answer: -0.115

Question: For “DDDAIKRFHEQVDNEQHNNEEEQEKNVDPNATVNVGDKTYHGREKWREVVKRENEEMRVKYQHVTFRRHPGRVIVRFRIVNDHNGKPTETDVNANYQMHNGRIRQVNRRTDG”, which protease stability score is on record?
Answer: 0.162

Question: Which protease stability score does the source give for “DDDALRRAKEMDDQIKNGNEHEYQKMVDPNAREHIGDTTYSGRENLVKLVRDRRRHMREKVDITEMESSGDKLRIVYRAEQEHNGQPRKKRRRKVIRLSNGRVQEVKVVDDQ” here?
Answer: 0.4

Question: Which protease stability score does the source give for “DDDALRRLEELWSALEEGDESRVNRNIDPNARLKIGDTTIHGREKLAESLVRDWKEIKLEIEFKTLEAHNGQARLEAIEHFRINGRPEQINFRMQMHQRNGNVDEIVIEMDPDQQRKKES” here?
Answer: -0.133

Question: With “DDDAMRKAHEFYTAYNTNDEDTLSKQFDPNARIRYGDEVIHGREQLKKWMEEIQREMSVSVRVKSMKVRGDEIHIKFDMTVDINGNPLEFDAQAEFRFRNGKFIDFTLQIPEEAQKQEHG” as the sequence, how does the protease stability score read?
Answer: 0.704

Question: For “DDDAQNTLSDRINLIKQGNKEEVDKQADPNATVQVGDKKVQGREEIRRWIKHVKDQLNVQIEIKHVEAQGNKVRIDASFRARINGKPVRIRFILIADMHNGRFKRVVMHLDEDQQRKYEK”, which protease stability score is on record?
Answer: 0.943

Question: Which protease stability score does the source give for “DDDAQRIAEDIQNALRKGDPERLNHLVDKNVKFVIGDKTIHGREDAAKQWHTMNRQMRIEVEMKHWDQQGNEVTIVARFVYEHNGRPETKRITRTITFHNGRAKEVVQKDDS” here?
Answer: 0.09

Question: For “DDDAQRRLEDQLKQIEEGNPEQIRNQVDPNATLRYGDKTIQGREEIVKWWKRIRDESRIQFHLKSMEVSGDQVRVVFNLVVKHNGKPSHSQVVVTLRFHNGKVTEVSMQHTS”, which protease stability score is on record?
Answer: 1.71

Question: For “DDDAQRRVKTYFNLLLTGNPENLKNQVDEDVRVEIGDKEIRGSDQVAHHARQLHTEMRIHARIDDMKVQGDHIRVEVRLYFERNGQPRTKNLRASVRWHNGKMKEFVVKNDD”, which protease stability score is on record?
Answer: 0.682

Question: With “DDDAQRVLNEFWRHWRRGNEEELKKLVDPNAQFEVGNKTFHGREHYANYLRRVSEEMTFDINIKDMSVEGDQVVIDATIMVQVNGNPISIKVIWRANATNGKIKYLSLQIDEDMVRQQQS” as the sequence, how does the protease stability score read?
Answer: 0.445

Question: For “DDDARDLMKEVLTAQKNNDPKHVRKLFDPNANIKYGDREVTGMDHAAKTLVDHIQQIRLQIDSVTLEVQGDTIIVHAQMVNDRNGNPDSTRFVLEAKVDGDKFKSQDKQEDS”, which protease stability score is on record?
Answer: -0.524

Question: Which protease stability score does the source give for “DDDARERVDELLEVEQTGNREDIKRLVDPNAKVQVGDDEYHGMEVYAETVVKKRKEINIELRFKDMQVHNGRANADVEAVYDHNGRPSRMRFVLHFVIRNGKFKEIRLREDR” here?
Answer: 1.2

Question: For “DDDARRVINDALEAMNSNNESQLAHLFDPNATFEVGDREIHGRDDFREWVRQMQEEMRFSVSVRDVQERPNHVKFDVEYEEEKNGNPDKHRAVLKARARNGKITELKLDNHK”, which protease stability score is on record?
Answer: 0.075

Question: With “DDDASRRFHEFVKLVRTNNPHKAMEMVDPNARFHIGDKEIHGREDVRRWVSRMLREARVTIDLKSLDVQGEKVKVTNLVRRRHNGEPQQMSVHAQVVWHNGKIKQETAHFKG” as the sequence, how does the protease stability score read?
Answer: 0.127

Question: Which protease stability score does the source give for “DDDATKVVKEFLSALKTNNPDRARELIDKDVRVRVGDKEIHGREQLITHIETDLKKIRIEIKHMHIDVTGEDIIIHQVFVDEHNGRPHTQTVVVFIEMNNGRVKNVRSETSS” here?
Answer: 0.322

Question: With “DDDAVRKARELQKAYDHGDEQKVRDLADPNARVRVGDKKLHGMEDIAHTLAERDKQIDNTVRVDRITAHNGRVDANLRMRNNNNGRPNNFELDLKVVVDNGNIVDVDRQNNR” as the sequence, how does the protease stability score read?
Answer: -0.207

Question: Which protease stability score does the source give for “DDDAVRKLRELIKAVKDGDPSRAKELMDPNAEIVVGDHYIRGMDNFDKEIDRQKKEARVEYRLKRVRHDENHIKVDAEVIFNVNGRPVTFKLKMRVKLHNGKMIEVEQQVDESSIERVKS” here?
Answer: 1.01

Question: With “DDDAVRLFKEELKAEKNNNPDKIRELADPNARFKVGDKTVHGRESWARTVETRAREIRNDIDVKSYDNDNGRADIKMTVHQEENGRPQHNEASANITADNGRLKEVQIHSRP” as the sequence, how does the protease stability score read?
Answer: -0.356

Question: For “DDDAVRQAQENLKAIEDGDEDKVRNLMDPNAQVNIGDKTIHGMEEFMRQMKRKLDEIRVDYEDIKIDKQGDKARLDATWRQDDNGEPHSMKVDVDVKFRNGKIVDWQQQYDG”, which protease stability score is on record?
Answer: -0.149
